± gives the standard deviation of the averaged measurements.

The nature of this data set: total protein half-life in vivo (active degradation + dilution); higher = more stable protein.
[1] abbreviates: E. coli NCM3722 delta-clpP delta-lon delta-hslV, growth: N-lim chemostat, doubling time 6 h.
Where [2] appears, read: E. coli NCM3722 delta-clpP, growth: N-lim chemostat, doubling time 6 h.
[3] abbreviates: E. coli NCM3722 delta-hslV, growth: N-lim chemostat, doubling time 6 h.
Where [4] appears, read: E. coli NCM3722 delta-lon, growth: N-lim chemostat, doubling time 6 h.
Setting [5] is: E. coli NCM3722 delta-smpB, growth: N-lim chemostat, doubling time 6 h.
[6] abbreviates: wild type E. coli NCM3722, growth: C-lim chemostat, doubling time 3 h.
Where [7] appears, read: wild type E. coli NCM3722, growth: C-lim chemostat, doubling time 6 h.
[8] abbreviates: wild type E. coli NCM3722, growth: C-lim chemostat, doubling time 12 h.
Setting [9] is: wild type E. coli NCM3722, growth: N-lim chemostat, doubling time 6 h.
The mark [10] stands for this setting: wild type E. coli NCM3722, growth: N-lim chemostat, doubling time 12 h.
[11] abbreviates: wild type E. coli NCM3722, growth: P-lim chemostat, doubling time 6 h.
Where [12] appears, read: wild type E. coli NCM3722, growth: P-lim chemostat, doubling time 12 h.

As to “MLRIAKEALTFDDVLLVPAHSTVLPNTADLSTQLTKTIRLNIPMLSAAMDTVTEARLAIALAQEGGIGFIHKNMSIERQAEEVRRVKKHESGVVTDPQTVLPTTTLREVKELTERNGFAGYPVVTEENELVGIITGRDVRFVTDLNQPVSVYMTPKERLVTVREGEAREVVLAKMHEKRVEKALVVDDEFHLIGMITVKDFQKAERKPNACKDEQGRLRVGAAVGAGAGNEERVDALVAAGVDVLLIDSSHGHSEGVLQRIRETRAKYPDLQIIGGNVATAAGARALAEAGCSAVKVGIGPGSICTTRIVTGVGVPQITAVADAVEALEGTGIPVIADGGIRFSGDIAKAIAAGASAVMVGSMLAGTEESPGEIELYQGRSYKSYRGMGSLGAMSKGSSDRYFQSDNAADKLVPEGIEGRVAYKGRLKEIIHQQMGGLRSCMGLTGCGTIDELRTKAEFVRISGAGIQESHVHDVTITKESPNYRLGS [P0ADG7]”, the “total protein half-life in vivo” value stood at 5.001 ± 0.0064 h under setting [1]; 3.78 ± 0.047 h under setting [2]; 4.06 ± 0.047 h under setting [3]; 4.91 ± 0.38 h under setting [4]; 3.95 ± 0.36 h under setting [5]; 3.01 ± 0.44 h under setting [6]. Besides, the “total protein half-life in vivo” value came to 5.76 ± 0.073 h under setting [7]; 11.2 ± 1.9 h under setting [8]; 4.29 ± 0.39 h under setting [9]; 6.68 ± 0.18 h under setting [10]; 6.02 ± 0.29 h under setting [11]; 12.5 ± 0.63 h under setting [12].

For the sequence “MNEFSILCRVLGSLYYRQPQDPLLVPLFTLIREGKLAANWPLEQDELLTRLQKSCDMTQVSADYNALFIGDECAVPPYRSAWVEGATEAEVRAFLSERGMPLADTPADHIGTLLLAASWLEDQSTEDESEALETLFSEYLLPWCGAFLGKVEAHATTPFWRTMAPLTRDAISAMWDELEEDSEE”, the “total protein half-life in vivo” value under setting [1] was 5.33 ± 0.97 h; the “total protein half-life in vivo” value under setting [2] amounted to 5.83 ± 1.6 h; the “total protein half-life in vivo” value under setting [3] turned out to be 5.14 ± 0.17 h; the “total protein half-life in vivo” value under setting [4] is 5.97 ± 1.5 h; the “total protein half-life in vivo” value under setting [5] was found to be 5.24 ± 0.65 h; the “total protein half-life in vivo” value under setting [6] was determined as 3.342 ± 0.021 h. For the same sequence, the “total protein half-life in vivo” value under setting [7] is 6.25 ± 0.39 h, the “total protein half-life in vivo” value under setting [9] is 4.99 ± 0.71 h and the “total protein half-life in vivo” value under setting [10] worked out at 9.91 ± 0.97 h.

“MSQVQSGILPEHCRAAIWIEANVKGEVDALRAASKTFADKLATFEAKFPDAHLGAVVAFGNNTWRALSGGVGAEELKDFPGYGKGLAPTTQFDVLIHILSLRHDVNFSVAQAAMEAFGDCIEVKEEIHGFRWVEERDLSGFVDGTENPAGEETRREVAVIKDGVDAGGSYVFVQRWEHNLKQLNRMSVHDQEMVIGRTKEANEEIDGDERPETSHLTRVDLKEDGKGLKIVRQSLPYGTASGTHGLYFCAYCARLHNIEQQLLSMFGDTDGKRDAMLRFTKPVTGGYYFAPSLDKLMAL”: the “total protein half-life in vivo” value by setting is: under setting [1], 3.34 ± 0.63 h; under setting [2], 3.25 ± 0.84 h; under setting [3], 3.36 ± 0.15 h; under setting [4], 3.73 ± 0.79 h; under setting [5], 3.14 ± 0.27 h; under setting [6], 2.96 ± 0.12 h. The “total protein half-life in vivo” value came to 8.52 ± 2.9 h under setting [8]; 3.18 ± 0.17 h under setting [9]; 4.17 ± 0.094 h under setting [10]; 5.09 ± 0.12 h under setting [11]; 9.66 ± 0.84 h under setting [12].

Turning to “MANPEQLEEQREETRLIIEELLEDGSDPDALYTIEHHLSADDLETLEKAAVEAFKLGYEVTDPEELEVEDGDIVICCDILSECALNADLIDAQVEQLMTLAEKFDVEYDGWGTYFEDPNGEDGDDEDFVDEDDDGVRH [P0AF90]”, the “total protein half-life in vivo” value stood at 5.62 ± 0.39 h under setting [1]; 4 ± 0.52 h under setting [2]; 3.94 ± 0.18 h under setting [3]; 5.36 ± 0.26 h under setting [4]; 3.73 ± 0.12 h under setting [5]; 2.08 h under setting [6]. For the same sequence, the “total protein half-life in vivo” value is, setting by setting: under setting [7], 5.51 ± 1.6 h; under setting [8], 8.63 ± 2.2 h; under setting [9], 4.14 h; under setting [10], 7.72 ± 1.9 h; under setting [11], 2.61 ± 0.039 h; under setting [12], 6.57 ± 0.075 h.

Take “MQSWYLLYCKRGQLQRAQEHLERQAVNCLAPMITLEKIVRGKRTAVSEPLFPNYLFVEFDPEVIHTTTINATRGVSHFVRFGASPAIVPSAVIHQLSVYKPKDIVDPATPYPGDKVIITEGAFEGFQAIFTEPDGEARSMLLLNLINKEIKHSVKNTEFRKL [P0AFW0]”: the “total protein half-life in vivo” value was found to be 4.25 ± 0.76 h under setting [1]; 3.41 ± 0.17 h under setting [2]; 3.23 h under setting [3]; 3.931 ± 0.015 h under setting [4]; 2.52 ± 0.22 h under setting [5]; 3.08 ± 0.73 h under setting [6]. The “total protein half-life in vivo” value runs as follows: under setting [7], 5.24 ± 1.7 h; under setting [8], 6.64 ± 1.1 h; under setting [9], 3.18 h; under setting [10], 5.43 ± 1.4 h; under setting [11], 4.35 ± 0.79 h; under setting [12], 7.71 h.

For “MLELNFSQTLGNHCLTINETLPANGITAIFGVSGAGKTSLINAISGLTRPQKGRIVLNGRVLNDAEKGICLTPEKRRVGYVFQDARLFPHYKVRGNLRYGMSKSMVDQFDKLVALLGIEPLLDRLPGSLSGGEKQRVAIGRALLTAPELLLLDEPLASLDIPRKRELLPYLQRLTREINIPMLYVSHSLDEILHLADRVMVLENGQVKAFGALEEVWGSSVMNPWLPKEQQSSILKVTVLEHHPHYAMTALALGDQHLWVNKLDEPLQAALRIRIQASDVSLVLQPPQQTSIRNVLRAKVVNSYDDNGQVEVELEVGGKTLWARISPWARDELAIKPGLWLYAQIKSVSITA”, the “total protein half-life in vivo” value stood at 5.74 ± 0.84 h under setting [1]; 6.32 ± 1.6 h under setting [2]; 6.25 ± 0.98 h under setting [3]; 5.26 ± 0.55 h under setting [4]; 5.04 ± 0.092 h under setting [5]; 2.76 ± 0.18 h under setting [6]. In addition, the “total protein half-life in vivo” value reads like this: under setting [7], 5.77 ± 0.64 h; under setting [8], 11 ± 1.2 h; under setting [9], 5.676 ± 0.014 h; under setting [10], 10.2 ± 1.3 h; under setting [11], 6.12 ± 0.077 h.

For the sequence “MTGKKRSASSSRWLQEHFSDKYVQQAQKKGLRSRAWFKLDEIQQSDKLFKPGMTVVDLGAAPGGWSQYVVTQIGGKGRIIACDLLPMDPIVGVDFLQGDFRDELVMKALLERVGDSKVQVVMSDMAPNMSGTPAVDIPRAMYLVELALEMCRDVLAPGGSFVVKVFQGEGFDEYLREIRSLFTKVKVRKPDSSRARSREVYIVATGRKP [P0C0R7]”, the “total protein half-life in vivo” value amounted to 5.17 ± 0.46 h under setting [1]; 3.946 ± 0.035 h under setting [2]; 4.42 ± 0.32 h under setting [3]; 4.55 ± 0.18 h under setting [4]; 4.52 ± 0.28 h under setting [5]; 2.81 ± 0.034 h under setting [6]. The “total protein half-life in vivo” value by setting is: under setting [7], 5.87 ± 0.41 h; under setting [8], 11.4 ± 1.5 h; under setting [9], 4.45 ± 0.14 h; under setting [10], 7.904 ± 0.057 h; under setting [11], 5.13 ± 0.14 h; under setting [12], 8.89 ± 0.018 h.

The values are drawn from the supplement of paper PMC11246515.
